The RNAGym collection of RNA variant scans (doi:10.7554/elife.80360)

B1: HDV Ribozyme (parent)
chain: GGCCGGCAUGGUCCCAGCCUCCUCGCUGGCGCCGGCUGGGCAACAUUCCGAGGGGACCGUCCCCUCGGUAAUGGCGAAUGGGACCCA

Variants of: B1
Test: self-cleavage, relative activity (ratio to wild type); higher = more cleavage; co-transcriptional

First: C24U A78C
Second: C26A G54C
The self-cleavage of the first is lower: 0.196 for the first, 1 for the second.

Compared with C26A G54A, G25A C84G is lower in self-cleavage: 0.79 for the first, 0.17 for the second.

Compared with C26G G73U, G25C A71G is lower in self-cleavage: 0.291 for the first, 0.131 for the second.

Compared with C24U G74U, C24G C85A is lower in self-cleavage: 0.143 for the first, 0.141 for the second.

Going from C24G C85U to C26A G28C, the self-cleavage falls from 0.107 to 0.0791.

Going from C26A G28U to C26U U37G, the self-cleavage rises from 0.222 to 0.346.

Going from C26U U37C to G25A A42C, the self-cleavage falls from 1.34 to 0.0462.

First: C26G G55A
Second: C26A C75G
The self-cleavage of the first is higher: 0.884 for the first, 0 for the second.

Going from G25U A78G to G25U A78U, the self-cleavage falls from 0.185 to 0.0831.

Going from G25U A78C to C26A G39U, the self-cleavage rises from 0.0665 to 0.935.

Going from G25C U37A to G25U G68A, the self-cleavage rises from 0.0426 to 0.0923.

First: G25A U65C
Second: G25C G55A
The self-cleavage of the first is higher: 0.208 for the first, 0.158 for the second.

Going from C26U U47G to C26G G34A, the self-cleavage falls from 0.877 to 0.54.

First: C26A U65G
Second: G25C A51U
The self-cleavage of the first is higher: 0.646 for the first, 0.148 for the second.

Compared with C26A A70C, C26A A70G is higher in self-cleavage: 1.01 for the first, 1.11 for the second.

Going from G25C G81U to G25C G81C, the self-cleavage falls from 0.151 to 0.0449.

First: C26G C48A
Second: G25U U60A
The self-cleavage of the first is higher: 0.973 for the first, 0.237 for the second.

Compared with G25U U60C, C26U C44G is higher in self-cleavage: 0.0475 for the first, 0.831 for the second.

Going from C24U G73C to C26A, the self-cleavage rises from 0.0773 to 1.01.

Compared with C26U, C26G is lower in self-cleavage: 1.02 for the first, 0.952 for the second.

Going from C26A U69A to C26U G54C, the self-cleavage rises from 0.985 to 1.03.

Compared with G25C U69C, C24G G55A is lower in self-cleavage: 0.175 for the first, 0.166 for the second.

Going from G25A C33A to G25A C33G, the self-cleavage falls from 0.0863 to 0.0228.

First: C26U A42U
Second: C24G G31C
The self-cleavage of the first is higher: 0.682 for the first, 0.0563 for the second.

Going from G25C A78U to G25A G39A, the self-cleavage rises from 0.131 to 0.172.

Going from G25C C48U to G25C C48G, the self-cleavage falls from 0.26 to 0.133.

Going from G25C G53U to G25C G53A, the self-cleavage falls from 0.193 to 0.

Compared with G25C G53C, C24U G28A is lower in self-cleavage: 0.356 for the first, 0.172 for the second.

First: C24U G28C
Second: G25U A87C
The self-cleavage of the first is lower: 0.0475 for the first, 0.0755 for the second.

Compared with G25U A87U, G25C U65G is lower in self-cleavage: 0.109 for the first, 0.0875 for the second.

Compared with C26A C66U, C26A C66A is higher in self-cleavage: 0.857 for the first, 0.909 for the second.

Going from G25U G31A to C26G C64G, the self-cleavage rises from 0.157 to 0.787.

Compared with C24U U72A, C24U G81U is lower in self-cleavage: 0.404 for the first, 0.169 for the second.

Compared with G25U G54C, G25C C30A is lower in self-cleavage: 0.122 for the first, 0.0511 for the second.

First: G25U U79C
Second: C24U G35C
The self-cleavage of the first is higher: 0.115 for the first, 0.0339 for the second.

Compared with C24U G35A, C24U G35U is lower in self-cleavage: 0.372 for the first, 0.131 for the second.

Going from C26A A77G to C26U C66A, the self-cleavage rises from 0.902 to 1.09.

First: G25A G38C
Second: G25A G38U
The self-cleavage of the first is higher: 0.0791 for the first, 0.0744 for the second.

Going from C24G G35A to C24G G35C, the self-cleavage falls from 0.124 to 0.0332.

Going from G25U U47G to G25U G35C, the self-cleavage rises from 0.0692 to 0.0707.

Compared with G25C C84G, G25C C84U is lower in self-cleavage: 0.158 for the first, 0.0314 for the second.

First: C26A C36G
Second: G25C C66U
The self-cleavage of the first is higher: 0.196 for the first, 0.0563 for the second.

Compared with C26G C49A, C26A C62G is lower in self-cleavage: 0.95 for the first, 0.63 for the second.

Going from C26G C86A to G25C C33A, the self-cleavage falls from 0.847 to 0.

Going from G25C C33U to G25A G52C, the self-cleavage rises from 0.0773 to 0.174.

Going from G25A G52A to G25C G73A, the self-cleavage rises from 0.0863 to 0.116.

Compared with G25C G80A, C26U G29U is higher in self-cleavage: 0.0744 for the first, 0.136 for the second.

Compared with G25U C26G, G25U C26U is lower in self-cleavage: 0.816 for the first, 0.0415 for the second.

Going from C26G C61A to C24U G82A, the self-cleavage falls from 1.12 to 0.107.

Going from C26A G29U to C26A G29A, the self-cleavage rises from 0.032 to 0.13.

First: C24U A77U
Second: C24U A77G
The self-cleavage of the first is lower: 0.0791 for the first, 0.53 for the second.

First: C24U A42C
Second: C24U A42U
The self-cleavage of the first is lower: 0.125 for the first, 0.17 for the second.

Going from C26G U65G to G25A G31C, the self-cleavage falls from 1.09 to 0.0739.

Compared with G25C G74U, C26U A45C is higher in self-cleavage: 0.108 for the first, 0.776 for the second.

First: C26A U46C
Second: G25U C33U
The self-cleavage of the first is higher: 0.745 for the first, 0.0831 for the second.

Compared with G25U C33A, G25U C66A is higher in self-cleavage: 0.156 for the first, 0.172 for the second.

First: G25U C66U
Second: G25C C49A
The self-cleavage of the first is higher: 0.151 for the first, 0.0594 for the second.

Going from C26A C48A to C26A C48G, the self-cleavage rises from 0.941 to 1.07.

First: G25C G82A
Second: G25C C32A
The self-cleavage of the first is lower: 0.0361 for the first, 0.148 for the second.

Compared with C26A G35U, C26A G35C is lower in self-cleavage: 0.619 for the first, 0.429 for the second.

First: C26U U72G
Second: C26U G35A
The self-cleavage of the first is lower: 0.721 for the first, 0.876 for the second.

Going from C26U G34A to C26U G38A, the self-cleavage falls from 0.36 to 0.0573.

Compared with C26U G38C, C26G G52C is higher in self-cleavage: 0.155 for the first, 0.889 for the second.

First: C26G G52U
Second: C24G C86U
The self-cleavage of the first is higher: 0.671 for the first, 0.17 for the second.

Going from C26U G67A to C26U G67C, the self-cleavage rises from 0.947 to 1.12.

Compared with G25C G38U, G25C G38C is higher in self-cleavage: 0.0791 for the first, 0.119 for the second.

Going from C26G G74U to C26U U46C, the self-cleavage rises from 0.359 to 0.897.

Compared with C26A U79G, C26U U27G is higher in self-cleavage: 0.875 for the first, 0.923 for the second.

First: C26U U27C
Second: G25U A77U
The self-cleavage of the first is higher: 1.29 for the first, 0.0923 for the second.

Going from C24U G59C to G25C A70G, the self-cleavage falls from 0.845 to 0.0573.

Going from G25U U69G to G25U U27A, the self-cleavage falls from 0.244 to 0.135.

Going from C26G A70C to G25U G55A, the self-cleavage falls from 0.957 to 0.201.

Compared with G25A A70C, G25A A70U is higher in self-cleavage: 0.138 for the first, 0.17 for the second.

First: G25U G80U
Second: G25U G53A
The self-cleavage of the first is lower: 0.115 for the first, 0.19 for the second.

First: C26A G40A
Second: C24U G38A
The self-cleavage of the first is higher: 1.01 for the first, 0.0863 for the second.

Going from C26U G28A to C24U C58G, the self-cleavage rises from 0.234 to 0.811.

First: C24U C58A
Second: C24U C58U
The self-cleavage of the first is higher: 0.789 for the first, 0.772 for the second.

First: G25U G67A
Second: G25A G59U
The self-cleavage of the first is lower: 0.227 for the first, 0.264 for the second.

Compared with G25A G59A, G25U G29U is lower in self-cleavage: 0.189 for the first, 0.12 for the second.

First: C24U C26G
Second: C24U C26U
The self-cleavage of the first is lower: 0.615 for the first, 0.867 for the second.

Compared with G25C G50U, G25C G50A is lower in self-cleavage: 0.0811 for the first, 0.0354 for the second.

Going from G25C U47A to G25A C32A, the self-cleavage rises from 0.0639 to 0.0848.

Going from C26A C49G to C24U U65A, the self-cleavage falls from 0.867 to 0.469.

With C26G C33G the self-cleavage was 0.285.
